# Test: Effect of single mutations of GmSHC on activity (site saturation mutagenesis / summary of variants)
# Type: biochemical, Gluconobacter morbifer
# Details: single position in GmSHC, SEQ ID NO: 2 numbering
# Excerpt: Three different approaches were taken to generate SHC variants: rational mutagenesis (site-directed mutagenesis), semi-rational mutagenesis (via site-saturation library), and random mutagenesis (error prone PCR). Variants were expressed in a heterologous system and screened by GC.
# To improve the conversion of HFA to sclareolide, GmSHC was mutated at one or more of the residues at position 45, 54, 178, 184, 222, 278, 284, 326, 348, 574 and 683 of SEQ ID NO: 2. Silent mutations at positions 249, 348, and 574 identified in an error prone library, were also introduced in the GmSHC of SEQ ID NO: 2.
molecule,measurement,value
"Q178S: GmSHC mutation Q178S selected by site-saturation mutagenesis (protein, Gluconobacter morbifer, GmSHC mutation Q178S selected by site-saturation mutagenesis) MSPADISTKSSSFQRLDNMLPEAVSSACDWLIDQQKPDGHWVGPVESNACMEAQWCLALWFLGQEDHPLRPRLAQALLEMQREDGSWGIYVGADHGDINTTVEAYAALRSMGYAADMPIMAKSAAWIQQKGGLRNVRVFTRYWLALIGEWPWDKTPNLPPEIIWLPDNFIFSIYNFASWARATMMPLTILSARRPSRPLLPENRLDGLFPEGRENFDYELPVKGEEDLWGRFFRAADKGLHSLQSFPVRRFVPREAAIRHVIEWIIRHQDADGGWGGIQPPWIYGLMALSVEGYPLHHPVLAKAMDALNDPGWRRDKGDASWIQATNSPVWDTMLAVLALHDAGAEDRYSPQMDKAIGWLLDRQVRVKGDWSIKLPDTEPGGWAFEYANDKYPDTDDTAVALIALAGCRHRPEWRERDIEGAISRGVNWLLAMQSSSGGWGAFDKDNNRSILTKIPFCDFGEALDPPSVDVTAHVLEAFGLLGISRNHPSVQKALAYIRSEQERNGAWFGRWGVNYVYGTGAVLPALAAIGEDMTQPYIVRACDWLMSVQQENGGWGESCASYMDINAVGHGVATASQTAWALIGLLAAKRPKDREAIARGCQFLIERQEDGSWTEEEYTGTGFPGYGVGQAIKLDDPSLPDRLLQGAELSRAFMLRYDLYRQYFPVMALSRARRMMKEDASAAA",effect of mutation on activity,improving activity
Y284W: GmSHC variant Y284W from site saturation mutagenesis (protein) MSPADISTKSSSFQRLDNMLPEAVSSACDWLIDQQKPDGHWVGPVESNACMEAQWCLALWFLGQEDHPLRPRLAQALLEMQREDGSWGIYVGADHGDINTTVEAYAALRSMGYAADMPIMAKSAAWIQQKGGLRNVRVFTRYWLALIGEWPWDKTPNLPPEIIWLPDNFIFSIYNFAQWARATMMPLTILSARRPSRPLLPENRLDGLFPEGRENFDYELPVKGEEDLWGRFFRAADKGLHSLQSFPVRRFVPREAAIRHVIEWIIRHQDADGGWGGIQPPWIWGLMALSVEGYPLHHPVLAKAMDALNDPGWRRDKGDASWIQATNSPVWDTMLAVLALHDAGAEDRYSPQMDKAIGWLLDRQVRVKGDWSIKLPDTEPGGWAFEYANDKYPDTDDTAVALIALAGCRHRPEWRERDIEGAISRGVNWLLAMQSSSGGWGAFDKDNNRSILTKIPFCDFGEALDPPSVDVTAHVLEAFGLLGISRNHPSVQKALAYIRSEQERNGAWFGRWGVNYVYGTGAVLPALAAIGEDMTQPYIVRACDWLMSVQQENGGWGESCASYMDINAVGHGVATASQTAWALIGLLAAKRPKDREAIARGCQFLIERQEDGSWTEEEYTGTGFPGYGVGQAIKLDDPSLPDRLLQGAELSRAFMLRYDLYRQYFPVMALSRARRMMKEDASAAA,effect of mutation on activity,increases activity
"M184T: GmSHC mutant M184T from site saturation mutagenesis (protein, Gluconobacter morbifer, GmSHC mutant M184T from site saturation mutagenesis) MSPADISTKSSSFQRLDNMLPEAVSSACDWLIDQQKPDGHWVGPVESNACMEAQWCLALWFLGQEDHPLRPRLAQALLEMQREDGSWGIYVGADHGDINTTVEAYAALRSMGYAADMPIMAKSAAWIQQKGGLRNVRVFTRYWLALIGEWPWDKTPNLPPEIIWLPDNFIFSIYNFAQWARATTMPLTILSARRPSRPLLPENRLDGLFPEGRENFDYELPVKGEEDLWGRFFRAADKGLHSLQSFPVRRFVPREAAIRHVIEWIIRHQDADGGWGGIQPPWIYGLMALSVEGYPLHHPVLAKAMDALNDPGWRRDKGDASWIQATNSPVWDTMLAVLALHDAGAEDRYSPQMDKAIGWLLDRQVRVKGDWSIKLPDTEPGGWAFEYANDKYPDTDDTAVALIALAGCRHRPEWRERDIEGAISRGVNWLLAMQSSSGGWGAFDKDNNRSILTKIPFCDFGEALDPPSVDVTAHVLEAFGLLGISRNHPSVQKALAYIRSEQERNGAWFGRWGVNYVYGTGAVLPALAAIGEDMTQPYIVRACDWLMSVQQENGGWGESCASYMDINAVGHGVATASQTAWALIGLLAAKRPKDREAIARGCQFLIERQEDGSWTEEEYTGTGFPGYGVGQAIKLDDPSLPDRLLQGAELSRAFMLRYDLYRQYFPVMALSRARRMMKEDASAAA",effect of mutation on activity,increase in activity
"A683E: GmSHC mutation A683E in the C-terminal domain (protein, Gluconobacter morbifer, GmSHC mutation A683E in the C-terminal domain) MSPADISTKSSSFQRLDNMLPEAVSSACDWLIDQQKPDGHWVGPVESNACMEAQWCLALWFLGQEDHPLRPRLAQALLEMQREDGSWGIYVGADHGDINTTVEAYAALRSMGYAADMPIMAKSAAWIQQKGGLRNVRVFTRYWLALIGEWPWDKTPNLPPEIIWLPDNFIFSIYNFAQWARATMMPLTILSARRPSRPLLPENRLDGLFPEGRENFDYELPVKGEEDLWGRFFRAADKGLHSLQSFPVRRFVPREAAIRHVIEWIIRHQDADGGWGGIQPPWIYGLMALSVEGYPLHHPVLAKAMDALNDPGWRRDKGDASWIQATNSPVWDTMLAVLALHDAGAEDRYSPQMDKAIGWLLDRQVRVKGDWSIKLPDTEPGGWAFEYANDKYPDTDDTAVALIALAGCRHRPEWRERDIEGAISRGVNWLLAMQSSSGGWGAFDKDNNRSILTKIPFCDFGEALDPPSVDVTAHVLEAFGLLGISRNHPSVQKALAYIRSEQERNGAWFGRWGVNYVYGTGAVLPALAAIGEDMTQPYIVRACDWLMSVQQENGGWGESCASYMDINAVGHGVATASQTAWALIGLLAAKRPKDREAIARGCQFLIERQEDGSWTEEEYTGTGFPGYGVGQAIKLDDPSLPDRLLQGAELSRAFMLRYDLYRQYFPVMALSRARRMMKEDASEAA",effect of mutation on activity,positive effect on activity
